The assay deals with FLAG-tagged full-length BRCA2 (human, UniProt P51587 1-3418). The assay is described as follows: pull-down.
Sequence of FLAG-tagged full-length BRCA2 (P51587 whole entry): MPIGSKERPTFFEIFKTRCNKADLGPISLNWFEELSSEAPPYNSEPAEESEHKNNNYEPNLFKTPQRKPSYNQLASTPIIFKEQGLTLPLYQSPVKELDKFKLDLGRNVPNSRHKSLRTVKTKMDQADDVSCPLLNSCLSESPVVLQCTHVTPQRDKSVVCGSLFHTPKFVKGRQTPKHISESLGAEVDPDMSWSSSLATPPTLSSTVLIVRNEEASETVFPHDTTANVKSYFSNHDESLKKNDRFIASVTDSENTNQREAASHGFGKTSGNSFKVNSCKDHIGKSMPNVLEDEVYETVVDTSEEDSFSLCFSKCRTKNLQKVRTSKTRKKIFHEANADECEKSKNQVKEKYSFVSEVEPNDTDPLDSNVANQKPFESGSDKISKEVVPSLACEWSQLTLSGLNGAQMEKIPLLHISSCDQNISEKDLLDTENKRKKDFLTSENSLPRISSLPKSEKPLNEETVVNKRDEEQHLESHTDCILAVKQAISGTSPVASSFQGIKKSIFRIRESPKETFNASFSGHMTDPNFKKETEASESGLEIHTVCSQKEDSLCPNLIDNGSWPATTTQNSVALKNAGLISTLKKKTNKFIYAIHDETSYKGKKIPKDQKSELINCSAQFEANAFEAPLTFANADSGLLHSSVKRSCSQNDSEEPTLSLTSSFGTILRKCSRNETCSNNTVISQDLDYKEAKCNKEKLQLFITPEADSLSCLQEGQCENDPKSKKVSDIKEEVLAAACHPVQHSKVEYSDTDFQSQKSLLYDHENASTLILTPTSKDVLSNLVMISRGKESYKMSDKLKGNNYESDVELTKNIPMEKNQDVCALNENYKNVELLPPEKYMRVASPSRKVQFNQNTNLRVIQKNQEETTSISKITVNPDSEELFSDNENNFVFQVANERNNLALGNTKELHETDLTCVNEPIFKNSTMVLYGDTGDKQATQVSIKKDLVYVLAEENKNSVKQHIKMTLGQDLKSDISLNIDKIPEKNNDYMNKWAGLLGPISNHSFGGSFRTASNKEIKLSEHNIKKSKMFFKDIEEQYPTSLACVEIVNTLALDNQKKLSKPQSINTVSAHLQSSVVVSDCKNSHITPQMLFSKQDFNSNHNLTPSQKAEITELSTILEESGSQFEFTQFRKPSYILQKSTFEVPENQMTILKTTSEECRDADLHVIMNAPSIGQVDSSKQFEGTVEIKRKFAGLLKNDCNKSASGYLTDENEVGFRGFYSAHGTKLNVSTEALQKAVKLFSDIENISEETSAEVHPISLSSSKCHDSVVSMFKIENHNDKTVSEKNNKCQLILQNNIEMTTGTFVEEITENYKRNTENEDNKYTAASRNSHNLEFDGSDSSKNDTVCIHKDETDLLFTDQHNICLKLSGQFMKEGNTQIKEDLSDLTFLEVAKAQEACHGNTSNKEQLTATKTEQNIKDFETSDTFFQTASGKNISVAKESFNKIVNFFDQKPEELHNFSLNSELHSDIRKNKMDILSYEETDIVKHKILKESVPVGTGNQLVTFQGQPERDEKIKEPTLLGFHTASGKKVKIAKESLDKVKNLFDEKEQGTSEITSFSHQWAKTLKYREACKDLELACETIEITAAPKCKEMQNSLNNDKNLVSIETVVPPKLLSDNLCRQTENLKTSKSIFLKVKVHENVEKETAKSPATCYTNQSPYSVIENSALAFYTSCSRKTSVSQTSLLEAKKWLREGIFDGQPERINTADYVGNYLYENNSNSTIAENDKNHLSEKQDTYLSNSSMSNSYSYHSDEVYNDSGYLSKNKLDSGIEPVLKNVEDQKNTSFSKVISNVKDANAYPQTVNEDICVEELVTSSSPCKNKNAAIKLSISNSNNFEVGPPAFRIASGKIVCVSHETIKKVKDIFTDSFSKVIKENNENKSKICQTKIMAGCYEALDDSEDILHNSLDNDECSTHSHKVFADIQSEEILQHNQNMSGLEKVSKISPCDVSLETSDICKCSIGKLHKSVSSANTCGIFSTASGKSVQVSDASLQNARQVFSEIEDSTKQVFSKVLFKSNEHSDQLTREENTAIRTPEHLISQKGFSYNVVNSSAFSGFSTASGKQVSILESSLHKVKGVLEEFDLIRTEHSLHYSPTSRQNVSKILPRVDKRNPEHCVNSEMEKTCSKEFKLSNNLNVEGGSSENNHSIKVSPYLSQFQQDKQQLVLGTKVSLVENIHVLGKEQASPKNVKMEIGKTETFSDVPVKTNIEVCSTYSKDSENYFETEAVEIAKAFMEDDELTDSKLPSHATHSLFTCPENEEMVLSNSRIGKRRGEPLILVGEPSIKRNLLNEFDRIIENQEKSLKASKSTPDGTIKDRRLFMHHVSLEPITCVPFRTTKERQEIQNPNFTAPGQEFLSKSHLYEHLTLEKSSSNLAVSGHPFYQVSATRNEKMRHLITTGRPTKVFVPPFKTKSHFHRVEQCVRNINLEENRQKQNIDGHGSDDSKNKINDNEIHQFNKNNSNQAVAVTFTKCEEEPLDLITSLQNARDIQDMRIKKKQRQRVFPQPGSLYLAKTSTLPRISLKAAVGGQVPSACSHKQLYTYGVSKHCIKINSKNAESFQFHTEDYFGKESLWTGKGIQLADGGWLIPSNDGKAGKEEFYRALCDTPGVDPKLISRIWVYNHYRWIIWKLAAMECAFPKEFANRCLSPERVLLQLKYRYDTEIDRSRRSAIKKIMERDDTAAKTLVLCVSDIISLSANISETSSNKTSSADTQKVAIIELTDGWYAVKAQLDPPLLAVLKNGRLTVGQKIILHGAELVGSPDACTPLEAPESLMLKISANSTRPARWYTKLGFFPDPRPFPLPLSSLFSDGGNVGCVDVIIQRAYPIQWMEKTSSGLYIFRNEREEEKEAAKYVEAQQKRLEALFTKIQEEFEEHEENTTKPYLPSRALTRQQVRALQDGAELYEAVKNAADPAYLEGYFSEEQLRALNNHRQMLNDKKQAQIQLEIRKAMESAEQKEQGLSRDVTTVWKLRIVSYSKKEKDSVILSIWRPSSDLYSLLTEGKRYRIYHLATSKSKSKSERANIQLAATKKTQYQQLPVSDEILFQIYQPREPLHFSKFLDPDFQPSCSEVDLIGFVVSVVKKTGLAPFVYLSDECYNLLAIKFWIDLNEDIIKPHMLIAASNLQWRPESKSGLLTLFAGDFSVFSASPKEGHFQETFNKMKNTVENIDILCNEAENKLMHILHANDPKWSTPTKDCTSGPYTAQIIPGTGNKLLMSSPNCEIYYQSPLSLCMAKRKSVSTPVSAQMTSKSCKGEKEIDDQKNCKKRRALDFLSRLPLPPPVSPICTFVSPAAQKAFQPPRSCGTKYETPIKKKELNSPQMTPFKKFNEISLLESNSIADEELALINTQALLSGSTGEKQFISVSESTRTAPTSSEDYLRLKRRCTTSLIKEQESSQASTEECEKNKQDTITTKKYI

B1: His-tagged full-length LIC2 (natural protein, human, UniProt O43237 1-492, looked up)
chain: MAPVGVEKKLLLGPNGPAVAAAGDLTSEEEEGQSLWSSILSEVSTRARSKLPSGKNILVFGEDGSGKTTLMTKLQGAEHGKKGRGLEYLYLSVHDEDRDDHTRCNVWILDGDLYHKGLLKFAVSAESLPETLVIFVADMSRPWTVMESLQKWASVLREHIDKMKIPPEKMRELERKFVKDFQDYMEPEEGCQGSPQRRGPLTSGSDEENVALPLGDNVLTHNLGIPVLVVCTKCDAVSVLEKEHDYRDEHLDFIQSHLRRFCLQYGAALIYTSVKEEKNLDLLYKYIVHKTYGFHFTTPALVVEKDAVFIPAGWDNEKKIAILHENFTTVKPEDAYEDFIVKPPVRKLVHDKELAAEDEQVFLMKQQSLLAKQPATPTRASESPARGPSGSPRTQGRGGPASVPSSSPGTSVKKPDPNIKNNAASEGVLASFFNSLLSKKTGSPGSPGAGGVQSTAKKSGQKTVLSNVQEELDRMTRKPDSMVTNSSTENEA
Take B1: the binding result is “binds”.

These data come from article PMC4993541 (Cell Cycle, 2016).
